From US20080274100A1

Columns and labels:
Assay in all cases: peptide ELISA, 0.5 µg/well scFv
[1] = target: CCR5 (residues 1-18) derived peptide, non-sulfated
[2] = target: GPIb (residues 268-285) derived peptide, sulfated at 3rd tyrosine position
[3] = target: CCR5 (residues 1-18) derived peptide, sulfated at 2nd tyrosine position
[4] = target: PSGL-1 (residues 42-58) derived peptide, sulfated at 1st tyrosine position
[5] = target: PSGL-1 (residues 42-58) derived peptide, sulfated at 3rd tyrosine position
[6] = target: CCR5 (residues 1-18) derived peptide, sulfated at 1st tyrosine position
[7] = target: PSGL-1 (residues 42-58) derived peptide, sulfated at 2nd tyrosine position
[8] = target: GPIb (residues 268-285) derived peptide, non-sulfated
[9] = target: PSGL-1 (residues 42-58) derived peptide, non-sulfated
[10] = target: CCR5 (residues 1-18) derived peptide, sulfated at 3rd tyrosine position
[11] = target: GPIb (residues 268-285) derived peptide, sulfated at 1st tyrosine position

## N06 scFv (negative control)
[1]
  ELISA read-out at 450 nm: 0.06 OD 450 nm
[2]
  ELISA read-out at 450 nm: 0.07 OD 450 nm
[3]
  ELISA read-out at 450 nm: 0.06 OD 450 nm
[4]
  ELISA read-out at 450 nm: 0.06 OD 450 nm
[5]
  ELISA read-out at 450 nm: 0.06 OD 450 nm
[6]
  ELISA read-out at 450 nm: 0.06 OD 450 nm
[7]
  ELISA read-out at 450 nm: 0.06 OD 450 nm
[8]
  ELISA read-out at 450 nm: 0.07 OD 450 nm
[9]
  ELISA read-out at 450 nm: 0.06 OD 450 nm
[10]
  ELISA read-out at 450 nm: 0.06 OD 450 nm
[11]
  ELISA read-out at 450 nm: 0.07 OD 450 nm
